Laboratory results reported in PMC5240998 (2017).

Assays:
[1] = molecular target: T1, GI.7 norovirus virus-like particles (norovirus GI.7 (strain )); experiment: SPR; VLPs captured by mAb 3912
[2] = molecular target: T2, GI.1 norovirus (Norwalk virus) virus-like particles (Norwalk virus (norovirus GI.1), UniProt Q83884 1-530); experiment: SPR; VLPs captured by mAb 3912
T2 chain: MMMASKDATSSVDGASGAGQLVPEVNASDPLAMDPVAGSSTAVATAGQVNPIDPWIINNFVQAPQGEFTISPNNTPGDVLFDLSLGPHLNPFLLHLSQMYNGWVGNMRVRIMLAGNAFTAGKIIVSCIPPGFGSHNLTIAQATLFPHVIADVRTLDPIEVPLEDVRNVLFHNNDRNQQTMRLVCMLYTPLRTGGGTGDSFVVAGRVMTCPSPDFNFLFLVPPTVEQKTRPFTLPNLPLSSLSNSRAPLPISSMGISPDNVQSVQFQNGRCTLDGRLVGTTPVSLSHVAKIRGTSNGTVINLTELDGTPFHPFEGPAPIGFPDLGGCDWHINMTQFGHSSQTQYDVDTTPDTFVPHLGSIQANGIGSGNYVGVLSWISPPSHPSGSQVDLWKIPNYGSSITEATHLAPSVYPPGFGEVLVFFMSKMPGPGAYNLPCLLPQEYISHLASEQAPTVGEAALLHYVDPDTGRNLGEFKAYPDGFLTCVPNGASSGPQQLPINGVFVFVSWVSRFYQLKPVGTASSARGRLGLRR

[3] = molecular target: T1, GI.7 norovirus virus-like particles; experiment: SPR; kinetic fit; VLPs captured by mAb 3912
[4] = molecular target: T2, GI.1 norovirus (Norwalk virus) …; experiment: SPR; kinetic fit; VLPs captured by mAb 3912

B1: Purified NJT-R3-A3 scFv soluble protein (scFv, V domains shown)
VH: EVQLLESGGGLVQPGGSLRLSCAASGFTFSSYAMSWVRQAPGKGLEWVSSIPRPGLHTSYADSVKGRFTISRDNSKNTLYLQMNSLRAEDTAVYYCAKHLRTFDYWGQGTLVTVSS
VL: DIQMTQSPSSLSASVGDRVTITCRASQSISSYLNWYQQKPGKAPKLLIYGASRLQSGVPSRFSGSGSGTDFTLTISSLQPEDFATYYCQQLPAVPITFGQGTKVEIK
**Q.** Which results are given for B1?
**A.** koff [1]: 0.00224 s⁻¹; koff [2]: 0.00149 s⁻¹; Ka [3]: 2.02e+07 M⁻¹; Ka [4]: 3.69e+07 M⁻¹
